In article PMC9482650, “Quantitative fragmentomics allow affinity mapping of interactomes” (Nature Communications, 2022):

T1: APBA1_1, Q02410
T1 sequence (Q02410 651-752, limits assumed, looked up): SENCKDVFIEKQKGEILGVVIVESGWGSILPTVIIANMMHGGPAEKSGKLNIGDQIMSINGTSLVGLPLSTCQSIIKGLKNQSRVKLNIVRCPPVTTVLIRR

T2: APBA1_2, Q02410
T2 sequence (Q02410 742-832, limits assumed, looked up): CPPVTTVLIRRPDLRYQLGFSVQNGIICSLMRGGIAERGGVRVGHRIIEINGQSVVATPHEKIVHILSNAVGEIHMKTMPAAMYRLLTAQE

T3: APBA3_1, O96018
T3 sequence (O96018 389-490, limits assumed, looked up): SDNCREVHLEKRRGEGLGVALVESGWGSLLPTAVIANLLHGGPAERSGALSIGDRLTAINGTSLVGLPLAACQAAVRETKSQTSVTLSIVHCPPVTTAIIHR

T4: DLG3_1, Q92796
T4 sequence (Q92796 125-227, limits assumed, looked up): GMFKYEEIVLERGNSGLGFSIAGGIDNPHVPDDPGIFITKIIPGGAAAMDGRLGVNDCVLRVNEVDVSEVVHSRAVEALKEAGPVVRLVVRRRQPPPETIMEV

T5: DLG3_2, Q92796
T5 sequence (Q92796 221-321, limits assumed, looked up): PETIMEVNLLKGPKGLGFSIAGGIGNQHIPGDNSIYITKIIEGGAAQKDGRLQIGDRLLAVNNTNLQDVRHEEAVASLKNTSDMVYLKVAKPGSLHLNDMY

T6: GRIP1_2, Q9Y3R0
T6 sequence (Q9Y3R0 145-248, limits assumed, looked up): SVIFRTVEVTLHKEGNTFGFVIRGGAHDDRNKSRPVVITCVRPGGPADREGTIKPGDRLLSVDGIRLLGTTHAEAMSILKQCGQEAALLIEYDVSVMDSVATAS

T7: LNX2_2, Q8N448
T7 sequence (Q8N448 334-432, limits assumed, looked up): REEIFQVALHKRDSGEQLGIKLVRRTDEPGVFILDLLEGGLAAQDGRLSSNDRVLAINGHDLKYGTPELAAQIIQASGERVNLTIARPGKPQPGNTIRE

T8: MPDZ_5, O75970
T8 sequence (O75970 695-796, limits assumed, looked up): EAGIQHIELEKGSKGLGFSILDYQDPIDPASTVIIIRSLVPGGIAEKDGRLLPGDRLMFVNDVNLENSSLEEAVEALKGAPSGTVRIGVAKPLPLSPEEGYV

T9: MPP2, Q14168
T9 sequence (Q14168 180-250, limits assumed, looked up): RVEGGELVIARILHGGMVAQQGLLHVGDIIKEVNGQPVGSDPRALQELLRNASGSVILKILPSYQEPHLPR

T10: RADIL, Q96JH8
T10 sequence (Q96JH8 971-1071, limits assumed, looked up): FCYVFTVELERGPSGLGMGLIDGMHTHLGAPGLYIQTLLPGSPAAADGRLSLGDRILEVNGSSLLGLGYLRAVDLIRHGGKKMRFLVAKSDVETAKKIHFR

T11: SNTB1, Q13884
T11 sequence (Q13884 107-205, limits assumed, looked up): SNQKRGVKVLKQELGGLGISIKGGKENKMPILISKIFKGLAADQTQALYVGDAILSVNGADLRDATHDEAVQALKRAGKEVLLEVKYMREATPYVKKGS

T12: TX1BP3, O14907
T12 sequence (O14907 10-122, limits assumed, looked up): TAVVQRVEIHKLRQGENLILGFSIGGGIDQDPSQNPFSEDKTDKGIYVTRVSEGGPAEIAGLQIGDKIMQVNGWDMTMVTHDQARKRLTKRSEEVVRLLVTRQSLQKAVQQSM


Tests used:
Assay in all cases: holdup assay
Set-up in all cases: key: below the threshold = too weak to quantify, mostly under pKd 3.1 to 4
Conditions in all cases: plain residues with an end cap or a label only (N-terminal biotin on a linker: ado-ado)
[1] = target: T1, APBA1_1, Q02410
[2] = target: T2, APBA1_2, Q02410
[3] = target: T3, APBA3_1, O96018
[4] = target: ARHGEF12, Q9NZN5-2
[5] = target: CASK, O14936
[6] = target: DLG1_2, Q12959
[7] = target: DLG2_2, Q15700
[8] = target: T4, DLG3_1, Q92796
[9] = target: T5, DLG3_2, Q92796
[10] = target: DLG4_3, P78352
[11] = target: T6, GRIP1_2, Q9Y3R0
[12] = target: Inadl_10, Q8NI35
[13] = target: LAP2, Q96RT1
[14] = target: LNX1_2, Q8TBB1
[15] = target: T7, LNX2_2, Q8N448
[16] = target: MAGI2_4, Q86UL8
[17] = target: MAGI3_2, Q5TCQ9
[18] = target: T8, MPDZ_5, O75970
[19] = target: T9, MPP2, Q14168
[20] = target: PDZRN4_1, Q6ZMN7
[21] = target: PICK1, Q9NRD5
[22] = target: T10, RADIL, Q96JH8
[23] = target: T11, SNTB1, Q13884
[24] = target: TJP1_2, Q07157
[25] = target: TJP2_1, Q9UDY2
[26] = target: T12, TX1BP3, O14907

LAP2, Q96RT1, sequence (Q96RT1 other isoform, or with tags, fused parts or gaps): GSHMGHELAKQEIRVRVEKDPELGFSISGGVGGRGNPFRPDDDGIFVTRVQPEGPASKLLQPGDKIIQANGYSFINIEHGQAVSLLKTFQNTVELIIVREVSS
DLG4_3, P78352, sequence (P78352 306-403): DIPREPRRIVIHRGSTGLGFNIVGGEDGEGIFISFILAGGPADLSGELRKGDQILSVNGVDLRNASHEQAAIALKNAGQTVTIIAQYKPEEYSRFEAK
LNX1_2, Q8TBB1, sequence (Q8TBB1 371-470): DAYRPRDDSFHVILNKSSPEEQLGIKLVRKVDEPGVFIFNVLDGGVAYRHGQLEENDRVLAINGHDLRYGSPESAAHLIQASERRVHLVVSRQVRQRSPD
MAGI3_2, Q5TCQ9, sequence (Q5TCQ9 398-503): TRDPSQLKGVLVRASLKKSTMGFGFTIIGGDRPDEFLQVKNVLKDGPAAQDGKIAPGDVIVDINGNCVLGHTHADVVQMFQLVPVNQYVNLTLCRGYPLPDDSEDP
ARHGEF12, Q9NZN5-2, sequence (Q9NZN5 other isoform, or with tags, fused parts or gaps): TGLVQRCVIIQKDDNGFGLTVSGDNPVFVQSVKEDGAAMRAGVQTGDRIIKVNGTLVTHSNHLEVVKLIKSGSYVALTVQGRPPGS
DLG1_2, Q12959, sequence (Q12959 314-412): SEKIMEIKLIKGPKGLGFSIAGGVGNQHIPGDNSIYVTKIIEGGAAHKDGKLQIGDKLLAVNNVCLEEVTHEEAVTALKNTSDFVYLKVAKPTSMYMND
PDZRN4_1, Q6ZMN7, sequence (Q6ZMN7 213-318): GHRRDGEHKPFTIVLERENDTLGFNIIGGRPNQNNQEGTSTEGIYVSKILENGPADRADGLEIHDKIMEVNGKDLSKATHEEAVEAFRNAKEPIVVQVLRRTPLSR
PICK1, Q9NRD5, sequence (Q9NRD5 17-115): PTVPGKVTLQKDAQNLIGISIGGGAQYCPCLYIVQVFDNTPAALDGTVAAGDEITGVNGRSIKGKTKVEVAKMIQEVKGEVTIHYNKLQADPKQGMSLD
DLG2_2, Q15700, sequence (Q15700 189-283): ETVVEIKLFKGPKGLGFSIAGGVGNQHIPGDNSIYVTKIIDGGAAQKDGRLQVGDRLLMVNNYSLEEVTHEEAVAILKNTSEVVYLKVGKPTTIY
MAGI2_4, Q86UL8, sequence (Q86UL8 772-865): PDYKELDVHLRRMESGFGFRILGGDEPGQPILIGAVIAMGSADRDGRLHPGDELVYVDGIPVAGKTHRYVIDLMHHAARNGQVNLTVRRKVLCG
TJP1_2, Q07157, sequence (Q07157 181-274): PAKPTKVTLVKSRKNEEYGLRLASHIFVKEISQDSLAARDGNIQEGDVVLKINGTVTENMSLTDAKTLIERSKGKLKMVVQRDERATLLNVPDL
TJP2_1, Q9UDY2, sequence (Q9UDY2 24-128): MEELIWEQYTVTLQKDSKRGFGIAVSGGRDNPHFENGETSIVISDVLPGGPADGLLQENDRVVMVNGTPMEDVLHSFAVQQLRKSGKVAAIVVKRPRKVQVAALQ
Inadl_10, Q8NI35, sequence (Q8NI35 1673-1763): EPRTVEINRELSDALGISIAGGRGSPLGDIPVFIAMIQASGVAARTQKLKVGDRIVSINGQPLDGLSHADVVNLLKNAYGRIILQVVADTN
CASK, O14936, sequence (O14936 487-570): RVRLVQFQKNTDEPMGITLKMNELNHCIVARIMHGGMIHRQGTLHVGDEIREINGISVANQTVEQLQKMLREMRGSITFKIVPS

pKd [1]	pKd [2]	pKd [3]	pKd [4]	pKd [5]	pKd [6]	pKd [7]	pKd [8]	pKd [9]	pKd [10]	pKd [11]	pKd [12]	pKd [13]	pKd [14]	pKd [15]	pKd [16]	pKd [17]	pKd [18]	pKd [19]	pKd [20]	Binder	further results
below the threshold	below the threshold	below the threshold	below the threshold	below the threshold	below the threshold	below the threshold	below the threshold	below the threshold	below the threshold	below the threshold	below the threshold	below the threshold	below the threshold	below the threshold	below the threshold	below the threshold	below the threshold	below the threshold	below the threshold	LVEEEEPMNL [HDAC7, Q8WUI4]	pKd [21]: 4.11; pKd [22]: below the threshold; pKd [23]: below the threshold; pKd [24]: below the threshold; pKd [25]: below the threshold; pKd [26]: 4.01
below the threshold	below the threshold	below the threshold	4.26	below the threshold	below the threshold	below the threshold	below the threshold	4.18	below the threshold	below the threshold	below the threshold	below the threshold	below the threshold	3.75	below the threshold	below the threshold	below the threshold	below the threshold	below the threshold	RSPVATATSC [DUSP5, Q16690]	pKd [21]: 3.97; pKd [22]: below the threshold; pKd [23]: below the threshold; pKd [24]: below the threshold; pKd [25]: below the threshold; pKd [26]: below the threshold
below the threshold	below the threshold	below the threshold	3.76	3.67	below the threshold	below the threshold	below the threshold	below the threshold	below the threshold	3.53	below the threshold	below the threshold	4.35	4.96	below the threshold	below the threshold	below the threshold	below the threshold	below the threshold	STYCDYTIEI [FAM71C, Q8NEG0]	pKd [21]: below the threshold; pKd [22]: 4.58; pKd [23]: below the threshold; pKd [24]: 3.65; pKd [25]: below the threshold; pKd [26]: below the threshold
below the threshold	below the threshold	below the threshold	4.13	below the threshold	3.92	3.79	3.98	4.42	4.38	below the threshold	below the threshold	below the threshold	4.62	5.39	3.63	4.67	below the threshold	3.82	below the threshold	NISARRFTLC [FAM167B, Q9BTA0]	pKd [21]: below the threshold; pKd [22]: 4.62; pKd [23]: 3.52; pKd [24]: below the threshold; pKd [25]: 4.76; pKd [26]: below the threshold
below the threshold	5.02	below the threshold	below the threshold	below the threshold	4.67	4.19	4.01	4.64	below the threshold	3.8	below the threshold	5.73	3.94	5.07	4.07	4.38	3.79	below the threshold	4.13	PLPPEEESWV [GAS2L2, Q8NHY3]	pKd [21]: below the threshold; pKd [22]: 4.55; pKd [23]: 4.86; pKd [24]: below the threshold; pKd [25]: 4.4; pKd [26]: 4.62
